This is an account of results in patent US11708565B2, “HPPD variants and methods of use” (BASF AGRICULTURAL SOLUTIONS SEED US LLC, priority 2017, dated 2023).

One experiment relates to Thorne soybean plants. Kind of experiment: Greenhouse herbicide spray application on T0 soybean plants. Type of experiment: in vivo. The settings on record: single gene cassettes in Thorne soybean, T0 plants sprayed with Cmpd. 1. The text has this: SG1, SG10, SG20, and SG22 were transformed as single gene cassettes into Thorne soybean plants and T0 plants were sprayed with Cmpd. 1 to measure herbicide tolerance. Each iteration of mutant identified in the bacterial screening assay performed better than the previous version (SG20>SG10>SG1).

The test system of another experiment is E. coli. The experiment is described as follows: Brown Color Assay (cell-based colorimetric assay of HPPD activity and tolerance to HPPD inhibitors). The settings on record: in the presence of 1 mM Cmpd. 1; for brown color formation: read at 440 nm. As for the experimental part: A specific, although non-limiting, type of assay that can be used to evaluate the HPPD sequences of the invention is a colorimetric assay. In this assay, a YT-broth-type culture medium with 1% agarose, 5 mM L-Tyrosine and 42 mM Succinate, which contains the selection agent for the vector pSE420 (Invitrogen, Karlsruhe, Germany) or a modified version of pSE420 (pSE420(RI)NX) is poured into deep well plates. E. coli culture in the exponential growth phase which contains the vector pSE420-HPPDx (HPPDx means any gene coding for a putative HPPD enzyme/protein) is applied to each well.
Confirmation of activity by Brown Color Assay: To confirm that the designated hits retain HPPD activity and are tolerant to HPPD inhibitors, a cell-based colorimetric assay was employed. Wild-type E. coli strains lack the HPPD pathway; therefore expressing an HPPD enzyme in the presence of the substrate hydroxyphenylpyruvate (HPP) leads to the accumulation of the product, homogentisate (HGA). HGA is, in turn, auto-oxidized to a brown pigment, pyomelanin, which can be read at 440 nm. When cells are grown in the presence of an herbicide, brown color formation is inhibited with no effect on cell growth. The pRANGER vector is a low-copy, broad host range vector that allows some expression in E. coli.

The subject of the next experiment is Cmpd. 1. The experiment is described as follows: HitMix bacterial competition experiment against Cmpd. 1. Type of experiment: cell-based. The settings on record: plasmid DNA of SG1, SG10 and reference proteins mixed, transformed and screened against Cmpd. 1. From the text:
Screening variant libraries: In order to select improved variants, libraries of varying complexity were constructed in the pRANGER backbone. The first significant library to be screened was a multi-site saturation library, in which amino acid positions 338, 339, 340, and 341 were randomized with NNK codons, which use 32 codons to encode all 20 amino acids, for a theoretical complexity of 1.6×10^5 unique protein variants. Approximately 500,000 variants were transformed and screened in a bacterial competition assay against 5 mM Cmpd. 1 (2-chloro-3-(methylsulfanyl)-N-(1-methyl-1H-tetrazol-5-yl)-4-(trifluoromethyl)benzamide), and surviving clones were sequenced. After 3 rounds of subculturing, a single sequence was found and designated SG1 (Table 1). This sequence was used as the base gene for a 2nd generation library saturating positions 268, 270, 340, and 345. Similarly, these libraries were screened and SG10 (Table 1) was obtained from sequencing the surviving cultures at high concentrations of Cmpd. 1. To confirm that the hits had improved tolerance relative to K610, a “HitMix” competition experiment was carried out. Briefly, the plasmid DNA encoding each variant to be competed were mixed together in an Eppendorf tube, and then the DNA mixture was transformed and screened against Cmpd. 1 as previously described.

B1: SG10: HPPD variant, SEQ ID NO:3; P268D, E335P, G336D, N337S, K339Y, A340R, I345M (protein)
chain: MADLYENPMGLMGFEFIEFASPTPGTLEPIFEIMGFTKVATHRSKNVHLYRQGEINLILNNEPNSIASYFAAEHGPSVCGMAFRVKDSQKAYNRALELGAQPIHIDTGPMELNLPAIKGIGGAPLYLIDRFGEGSSIYDIDFVYLEGVERNPVGAGLKVIDHLTHNVYRGRMVYWANFYEKLFNFREARYFDIKGEYTGLTSKAMSAPDGMIRIPLNEESSKGAGQIEEFLMQFNGEGIQHVAFLTDDLVKTWDALKKIGMRFMTAPDDTYYEMLEGRLPDHGEPVDQLQARGILLDGSSVEGDKRLLLQIFSETLMGPVFFEFIQRKGDDGFGPDSFYRLFESMERDQVRRGVLTAD
modifications: SG10 Mutant HPPD
notes: P268D, E335P, G336D, N337S, K339Y, A340R, I345M
Turning to B1, the “herbicide tolerance in planta” value in the experiment on Thorne soybean plants is “SG20>SG10>SG1”. For the same molecule, in the experiment with E. coli, the “brown color formation relative to HPPD(evo41)” value is recorded as “improved relative to HPPD(evo41)” and the brown color formation result was “robust brown color formation”. Moreover, in the experiment with Cmpd. 1, the “outcome of HitMix competition among variants” value is “emerged as the dominant sequence among all variants tested”.

B2: SG20: HPPD variant, SEQ ID NO:4; P268D, T270A, E335P, G336D, N337S, K339Y, A340R, S344Q, I345M (protein)
chain: MADLYENPMGLMGFEFIEFASPTPGTLEPIFEIMGFTKVATHRSKNVHLYRQGEINLILNNEPNSIASYFAAEHGPSVCGMAFRVKDSQKAYNRALELGAQPIHIDTGPMELNLPAIKGIGGAPLYLIDRFGEGSSIYDIDFVYLEGVERNPVGAGLKVIDHLTHNVYRGRMVYWANFYEKLFNFREARYFDIKGEYTGLTSKAMSAPDGMIRIPLNEESSKGAGQIEEFLMQFNGEGIQHVAFLTDDLVKTWDALKKIGMRFMTAPDDAYYEMLEGRLPDHGEPVDQLQARGILLDGSSVEGDKRLLLQIFSETLMGPVFFEFIQRKGDDGFGPDSFYRLFEQMERDQVRRGVLTAD
modifications: SG20 mutant HPPD
notes: P268D, T270A, E335P, G336D, N337S, K339Y, A340R, S344Q, I345M
Regarding B2, the “herbicide tolerance in planta” value with Thorne soybean plants is reported as “SG20>SG10>SG1”.

B3: SG22: HPPD variant, SEQ ID NO:5; P268D, E335N, G336D, N337S, A340R, I345M (protein)
chain: MADLYENPMGLMGFEFIEFASPTPGTLEPIFEIMGFTKVATHRSKNVHLYRQGEINLILNNEPNSIASYFAAEHGPSVCGMAFRVKDSQKAYNRALELGAQPIHIDTGPMELNLPAIKGIGGAPLYLIDRFGEGSSIYDIDFVYLEGVERNPVGAGLKVIDHLTHNVYRGRMVYWANFYEKLFNFREARYFDIKGEYTGLTSKAMSAPDGMIRIPLNEESSKGAGQIEEFLMQFNGEGIQHVAFLTDDLVKTWDALKKIGMRFMTAPDDTYYEMLEGRLPDHGEPVDQLQARGILLDGSSVEGDKRLLLQIFSETLMGPVFFEFIQRKGDDGFGNDSFKRLFESMERDQVRRGVLTAD
modifications: SG22 mutant HPPD
notes: P268D, E335N, G336D, N337S, A340R, I345M
Regarding B3, the “herbicide tolerance in planta” value in the experiment on Thorne soybean plants was “performed similarly to SG1”.

B4: SG1: HPPD variant, SEQ ID NO:2; E335P, G336D, N337S, K339Y, A340R relative to SEQ ID NO:1 (protein)
chain: MADLYENPMGLMGFEFIEFASPTPGTLEPIFEIMGFTKVATHRSKNVHLYRQGEINLILNNEPNSIASYFAAEHGPSVCGMAFRVKDSQKAYNRALELGAQPIHIDTGPMELNLPAIKGIGGAPLYLIDRFGEGSSIYDIDFVYLEGVERNPVGAGLKVIDHLTHNVYRGRMVYWANFYEKLFNFREARYFDIKGEYTGLTSKAMSAPDGMIRIPLNEESSKGAGQIEEFLMQFNGEGIQHVAFLTDDLVKTWDALKKIGMRFMTAPPDTYYEMLEGRLPDHGEPVDQLQARGILLDGSSVEGDKRLLLQIFSETLMGPVFFEFIQRKGDDGFGPDSFYRLFESIERDQVRRGVLTAD
modifications: SG1 variant HPPD
As to B4, the “herbicide tolerance in planta” value in the experiment on Thorne soybean plants was “SG20>SG10>SG1”. Also, in the experiment on E. coli, the “brown color formation relative to HPPD(evo41)” value was “improved relative to HPPD(evo41)” and the brown color formation result was “robust brown color formation”.
